Results reported in US20240209100A1 (DIAGONAL THERAPEUTICS, published 2024).

T1: IL-18 receptor (IL-18Rα/IL-18Rβ) overexpressed on HEK-Blue IL-18 cells (Homo sapiens (Human), UniProt Q13478 19-541; O95256 20-599)
T1 sequence 1: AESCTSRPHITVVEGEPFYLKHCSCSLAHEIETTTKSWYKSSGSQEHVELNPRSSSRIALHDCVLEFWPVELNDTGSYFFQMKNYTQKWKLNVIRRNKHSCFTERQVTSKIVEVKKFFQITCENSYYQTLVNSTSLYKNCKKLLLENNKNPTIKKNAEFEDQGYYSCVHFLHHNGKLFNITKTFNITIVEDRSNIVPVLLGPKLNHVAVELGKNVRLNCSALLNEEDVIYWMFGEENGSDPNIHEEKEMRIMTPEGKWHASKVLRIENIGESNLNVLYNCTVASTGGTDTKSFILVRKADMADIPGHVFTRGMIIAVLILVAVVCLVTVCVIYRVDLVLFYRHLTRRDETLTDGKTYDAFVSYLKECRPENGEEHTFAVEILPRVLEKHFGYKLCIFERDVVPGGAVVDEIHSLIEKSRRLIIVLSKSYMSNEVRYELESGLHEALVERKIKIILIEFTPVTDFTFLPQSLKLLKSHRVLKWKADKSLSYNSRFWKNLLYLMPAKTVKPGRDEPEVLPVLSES
T1 sequence 2: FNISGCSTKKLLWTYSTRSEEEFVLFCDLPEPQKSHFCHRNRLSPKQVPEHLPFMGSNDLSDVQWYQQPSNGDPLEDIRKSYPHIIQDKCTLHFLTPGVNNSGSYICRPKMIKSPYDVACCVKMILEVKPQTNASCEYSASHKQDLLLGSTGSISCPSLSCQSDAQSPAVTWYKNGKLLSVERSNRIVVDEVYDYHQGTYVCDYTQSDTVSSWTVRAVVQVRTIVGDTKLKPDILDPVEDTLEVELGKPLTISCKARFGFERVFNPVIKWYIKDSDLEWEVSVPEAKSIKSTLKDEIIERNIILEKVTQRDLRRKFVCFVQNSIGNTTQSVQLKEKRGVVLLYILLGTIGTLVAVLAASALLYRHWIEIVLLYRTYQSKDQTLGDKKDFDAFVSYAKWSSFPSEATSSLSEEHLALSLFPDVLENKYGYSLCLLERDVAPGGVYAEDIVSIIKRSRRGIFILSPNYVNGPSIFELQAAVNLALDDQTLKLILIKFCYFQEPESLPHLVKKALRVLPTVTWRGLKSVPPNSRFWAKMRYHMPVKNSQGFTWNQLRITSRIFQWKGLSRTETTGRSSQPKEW

B1: DGL168 (bispecific antibody)
heavy 1: QVQLVESGGGLVQAGGSLRLSCAASGRTFSSYNMGWFRQAPGKERESVAAISWSGGSSYYADSVKGRFTISRDNAKPTVYLQMNSLKPEDTAVYYCAADRDSEEWDGSSWFFKSDYWGQGTQVTVSSGGGSQVQLVESGGGLVQTGGPLRLSCAASGGTFSRYTMGWFRQAPGKEREYVAAISWRGSSIYYADAVKGRFTISRDSAKSTVYLQMNNLNSDDTAVYYCAADRTDLPRNAGEYGYWGQGTQVTVSSDKTHTCPPCPAPEAAGGPSVFLFPPKPKDTLMISRTPEVTCVVVDVSHEDPEVKFNWYVDGVEVHNAKTKPREEQYNSTYRVVSVLTVLHQDWLNGKEYKCKVSNKALPAPIEKTISKAKGQPREPQVCTLPPSRDELTKNQVSLSCAVKGFYPSDIAVEWESNGQPENNYKTTPPVLDSDGSFFLVSKLTVDKSRWQQGNVFSCSVMHEALHNHYTQKSLSLSPG
heavy 2: not shown
B2: DGL171 (bispecific antibody)
heavy 1: EVQLVESGGGLVQAGGSLRLSCAASGSISSRDTMGWYRQAPGKQREMVAVISSSGNTNYADSVLGRFTISRDNAKNTVDLQMNSLKPEDTAIYKCYAHRTYGVDYWGKGTLVTVSSDKGPSVFPLAPEPKSSQVQLVESGGGLVQAGGSLRLSCAASGRTFSSYTMGWFRQAPGKEREFVAAISWSAGRTYYADSVKGRFTISRDNAKNTVYLQMNSLKPEDTAVYFCAAEEAPDWAPIDCSGYGCLSLYDYWGQGTQVTVSSDKTHTCPPCPAPEAAGGPSVFLFPPKPKDTLMISRTPEVTCVVVDVSHEDPEVKFNWYVDGVEVHNAKTKPREEQYNSTYRVVSVLTVLHQDWLNGKEYKCKVSNKALPAPIEKTISKAKGQPREPQVCTLPPSRDELTKNQVSLSCAVKGFYPSDIAVEWESNGQPENNYKTTPPVLDSDGSFFLVSKLTVDKSRWQQGNVFSCSVMHEALHNHYTQKSLSLSPG
heavy 2: not shown
B3: DGL167 (bispecific antibody)
heavy 1: QVQLVESGGGLVQAGGSLRLSCAASGRTFSKHAMGWFRQAPGKEREFVAAIDWSGGSTYYADSVKGRFTISRDNAKNTVYLQMDSLKPEDTAVYYCAADSYTDYAQLWLPELESEYDYWGQGTQVTVSSGGGSQVQLQESGGGLVQAGGSLKLSCQASGLTFKRNTMGWFRQAPGKEREFVAHFLWTGGETDYADAVKGRFTISRDNAKNTVYLQMNSLKPEDTAVYFCAANYAGYRIDGYQYWGQGTQVTVSSDKTHTCPPCPAPEAAGGPSVFLFPPKPKDTLMISRTPEVTCVVVDVSHEDPEVKFNWYVDGVEVHNAKTKPREEQYNSTYRVVSVLTVLHQDWLNGKEYKCKVSNKALPAPIEKTISKAKGQPREPQVCTLPPSRDELTKNQVSLSCAVKGFYPSDIAVEWESNGQPENNYKTTPPVLDSDGSFFLVSKLTVDKSRWQQGNVFSCSVMHEALHNHYTQKSLSLSPG
heavy 2: not shown
B4: DGL165 (bispecific antibody)
heavy 1: QVQLVESGGGLVQAGGSLRLSCAASGRTFSSYTMGWFRQAPGKEREFVAAISWSAGRTYYADSVKGRFTISRDNAKNTVYLQMNSLKPEDTAVYFCAAEEAPDWAPIDCSGYGCLSLYDYWGQGTQVTVSSGGGSEVQLVESGGGLVQAGGSLRLSCAASGRTFRNYHMGWFRQAPGQEREFVAAISSSGGKTSYPDSVNGRFTISRDNAKNTVYLQMNNLKVEDTAVYYCAADPRYWVAAGGSEPENVEVWGQGTLVTVSSDKTHTCPPCPAPEAAGGPSVFLFPPKPKDTLMISRTPEVTCVVVDVSHEDPEVKFNWYVDGVEVHNAKTKPREEQYNSTYRVVSVLTVLHQDWLNGKEYKCKVSNKALPAPIEKTISKAKGQPREPQVCTLPPSRDELTKNQVSLSCAVKGFYPSDIAVEWESNGQPENNYKTTPPVLDSDGSFFLVSKLTVDKSRWQQGNVFSCSVMHEALHNHYTQKSLSLSPG
heavy 2: not shown
B5: DGL166 (bispecific antibody)
heavy 1: EVQLVESGGGLVQPGGSLRLSCAASGFFLDDYVLGWFRQAPGKPREGVSCISSRGRYLNYAETVKGRFTISRSNAKNTVYLQMNNLEPEDTAVYYCAAVRRVSEVCKLAEDDFASWGQGTQVTVSSGGGSQVQLVESGGGLVQAGDSLRLSCVASERTFSSYTMGWFRQAPGKEREFTAALSWWNGGISTAYADSVKGRFTISRDNAKNTVYLQMNSLKTEDTALYYCAAARDRMPRADEYDYWGQGTQVTVSSDKTHTCPPCPAPEAAGGPSVFLFPPKPKDTLMISRTPEVTCVVVDVSHEDPEVKFNWYVDGVEVHNAKTKPREEQYNSTYRVVSVLTVLHQDWLNGKEYKCKVSNKALPAPIEKTISKAKGQPREPQVCTLPPSRDELTKNQVSLSCAVKGFYPSDIAVEWESNGQPENNYKTTPPVLDSDGSFFLVSKLTVDKSRWQQGNVFSCSVMHEALHNHYTQKSLSLSPG
heavy 2: not shown
B6: DGL164 (bispecific antibody)
heavy 1: QVQLVESGGGLVQAGGSLRLSCAASGRTFSSYTMGWFRQAPGKEREFVAAISWSAGRTYYADSVKGRFTISRDNAKNTVYLQMNSLKPEDTAVYFCAAEEAPDWAPIDCSGYGCLSLYDYWGQGTQVTVSSDKGPSVFPLAPEPKSSQVQLVESGGGLVQAGGSLRLSCAASQTGFNMNRMGWYRQAPGKQRELVATITGGGSTTYADSVKGRFDISRGNVENNLYLQMNSLKPEDTAVYYCNALLFGRDYWGQGTQVTVSSDKTHTCPPCPAPEAAGGPSVFLFPPKPKDTLMISRTPEVTCVVVDVSHEDPEVKFNWYVDGVEVHNAKTKPREEQYNSTYRVVSVLTVLHQDWLNGKEYKCKVSNKALPAPIEKTISKAKGQPREPQVCTLPPSRDELTKNQVSLSCAVKGFYPSDIAVEWESNGQPENNYKTTPPVLDSDGSFFLVSKLTVDKSRWQQGNVFSCSVMHEALHNHYTQKSLSLSPG
heavy 2: not shown
B7: DGL170 (bispecific antibody)
heavy 1: QVQLVESGGGLVQAGGSLRLSCVASGTFFQIHVMGWYRQAPGKQRELVAFIINNGGTRYADSVKGRFTISRDYAKNTVYLQMNSLKPEDTAVYYCNTEGTYRGRYSTDNWGQGTQVTVSSDKGPSVFPLAPEPKSSQVQLVESGGGLVQAGGSLRLSCAASGRTFSKHAMGWFRQAPGKEREFVAAIDWSGGSTYYADSVKGRFTISRDNAKNTVYLQMDSLKPEDTAVYYCAADSYTDYAQLWLPELESEYDYWGQGTQVTVSSDKTHTCPPCPAPEAAGGPSVFLFPPKPKDTLMISRTPEVTCVVVDVSHEDPEVKFNWYVDGVEVHNAKTKPREEQYNSTYRVVSVLTVLHQDWLNGKEYKCKVSNKALPAPIEKTISKAKGQPREPQVCTLPPSRDELTKNQVSLSCAVKGFYPSDIAVEWESNGQPENNYKTTPPVLDSDGSFFLVSKLTVDKSRWQQGNVFSCSVMHEALHNHYTQKSLSLSPG
heavy 2: not shown
B8: DGL172 (bispecific antibody)
heavy 1: QLQLVESGGGLVQAGGSLRLSCAASRSITFSHNVMGWYRQAPGKQRELVASIGSGGSTNYVDSVKGRATISRDNAKKTVYLQMNSLKPEDTAVYYCGVVVGVYRGSLGQGTQVTVSSDKGPSVFPLAPEPKSSQVQLQESGGGLVQAGGSLRLSCQASGSIATINGMRWWRQAPGKERELVATINSGGSSNYADSVKGRFTISRDNASHTVSLQMNSLKPEDTAVYYCNLYVYSQFPPFSVDDYWGQGARVTVSSDKTHTCPPCPAPEAAGGPSVFLFPPKPKDTLMISRTPEVTCVVVDVSHEDPEVKFNWYVDGVEVHNAKTKPREEQYNSTYRVVSVLTVLHQDWLNGKEYKCKVSNKALPAPIEKTISKAKGQPREPQVCTLPPSRDELTKNQVSLSCAVKGFYPSDIAVEWESNGQPENNYKTTPPVLDSDGSFFLVSKLTVDKSRWQQGNVFSCSVMHEALHNHYTQKSLSLSPG
heavy 2: not shown
B9: DGL169 (bispecific antibody)
heavy 1: QVQLVESGGGLVQAGGSLRLSCAASGRTFSSYTMGWFRQAPGKEREFVAAISWSAGRTYYADSVKGRFTISRDNAKNTVYLQMNSLKPEDTAVYFCAAEEAPDWAPIDCSGYGCLSLYDYWGQGTQVTVSSGGGSQVQLVESGGGLVQAGGSLRLSCAASQTGFNMNRMGWYRQAPGKQRELVATITGGGSTTYADSVKGRFDISRGNVENNLYLQMNSLKPEDTAVYYCNALLFGRDYWGQGTQVTVSSDKTHTCPPCPAPEAAGGPSVFLFPPKPKDTLMISRTPEVTCVVVDVSHEDPEVKFNWYVDGVEVHNAKTKPREEQYNSTYRVVSVLTVLHQDWLNGKEYKCKVSNKALPAPIEKTISKAKGQPREPQVCTLPPSRDELTKNQVSLSCAVKGFYPSDIAVEWESNGQPENNYKTTPPVLDSDGSFFLVSKLTVDKSRWQQGNVFSCSVMHEALHNHYTQKSLSLSPG
heavy 2: not shown

target: T1, IL-18 receptor (IL-18Rα/IL-18Rβ) …; assay: cell-based or functional assay

| Binder | HEK-Blue IL-18: Abs 405 | HEK-Blue IL-18: Fold over Background |
| --- | --- | --- |
| B1 | 0.62 Abs | 5.1 fold |
| B2 | 0.53 Abs | 4.3 fold |
| B3 | 0.66 Abs | 5.5 fold |
| B4 | 0.19 Abs | 1.6 fold |
| B5 | 0.12 Abs | 1 fold |
| B6 | 0.28 Abs | 2.3 fold |
| B7 | 0.23 Abs | 1.9 fold |
| B8 | 1.02 Abs | 8.5 fold |
| B9 | 0.22 Abs | 1.8 fold |
